± gives the standard error. For some of these results: This sample holds only a part of the variants without activity.

The text below walks through data of the supplement of paper PMC7125110.

B1: glmS ribozyme (parent)
chain: AUAAAAGCGCCAGAACUACAGAAAUGUAGUUGACGAGGAGGAGGUUUAUCGAAUUUUCGGCGGAUGCCUCCAAA

Holding throughout (settings): with glucosamine-6-phosphate
Data set [1] covers variants of B1. The experiment in a line: self-cleavage kobs at 40 uM GlcN6P; higher = faster cleavage; RNA array. In a few lines: (§1)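 Glucosamine-6-phosphate in HEPES/KCl/Mg(OAc)2 buffer, at 40 μM to 10 mM, was flowed over barcoded ribozyme variants transcribed in situ by E. coli RNA polymerase on sequenced MiSeq chips. Tracking was through a hybridised Cy3 probe at 37 °C. kobs, kcat and KM came from exponential decay fits and weighted Michaelis–Menten fits of normalised per-tile medians.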

The variants in data set [2] derive from B1. The experiment in a line: self-cleavage kobs at 2500 uM GlcN6P; higher = faster cleavage; RNA array. In a few lines:
as §1

In data set [3] the parent is B1. The experiment in a line: self-cleavage kobs at 10000 uM GlcN6P; higher = faster cleavage; RNA array. In a few lines:
as §1

Variants of B1 are the subject of data set [4]. The experiment in a line: kcat; higher = faster cleavage; RNA array. In a few lines:
as §1

Variants of B1 are the subject of data set [5]. The experiment in a line: KM; higher = weaker cofactor use; RNA array. In a few lines:
as §1

In data set [6] the parent is B1. The experiment in a line: self-cleavage kobs at 160 uM GlcN6P; higher = faster cleavage; RNA array. The essentials: as §1
In data set [7] the parent is B1. The experiment in a line: self-cleavage kobs at 640 uM GlcN6P; higher = faster cleavage; RNA array. In a few lines:
as §1

In the case of A14C G32A A52U, the “self-cleavage kobs at 40 uM GlcN6P” value in the data set with glucosamine-6-phosphate [1] was less than 1e-05 s⁻¹. The “self-cleavage kobs at 2500 uM GlcN6P” value with glucosamine-6-phosphate [2] was 5.9e-05 ± 2.1e-05 s⁻¹. Also, the “self-cleavage kobs at 10000 uM GlcN6P” value with glucosamine-6-phosphate [3] turned out to be 9.78e-05 ± 1.9e-05 s⁻¹.
Consider C8G U31C A36U U57A, for which the “self-cleavage kobs at 40 uM GlcN6P” value with glucosamine-6-phosphate [1] is less than 1e-05 s⁻¹. Moreover, in the data set with glucosamine-6-phosphate [2], the “self-cleavage kobs at 2500 uM GlcN6P” value was less than 1e-05 s⁻¹.
Regarding U49C C61G, the “self-cleavage kobs at 40 uM GlcN6P” value in the data set with glucosamine-6-phosphate [1] was less than 1e-05 s⁻¹. The “self-cleavage kobs at 10000 uM GlcN6P” value with glucosamine-6-phosphate [3] was less than 1e-05 s⁻¹.
Turning to U54C U55C U65A, the “self-cleavage kobs at 40 uM GlcN6P” value with glucosamine-6-phosphate [1] worked out at 3.24e-05 ± 1.6e-05 s⁻¹.
G29U U65G: the kcat with glucosamine-6-phosphate [4] turned out to be 0.00182 ± 0.0005 s⁻¹. In the data set with glucosamine-6-phosphate [5], the KM was 4450 ± 1800 µM. Also, in the data set with glucosamine-6-phosphate [1], the “self-cleavage kobs at 40 uM GlcN6P” value was determined as 3.41e-05 ± 1.4e-05 s⁻¹. Besides, the “self-cleavage kobs at 160 uM GlcN6P” value with glucosamine-6-phosphate [6] came to 8.11e-05 ± 1.6e-05 s⁻¹. The “self-cleavage kobs at 640 uM GlcN6P” value with glucosamine-6-phosphate [7] is 0.000188 ± 3e-05 s⁻¹. Further, in the data set with glucosamine-6-phosphate [2], the “self-cleavage kobs at 2500 uM GlcN6P” value turned out to be 0.000739 ± 0.0001 s⁻¹. For the same variant, the “self-cleavage kobs at 10000 uM GlcN6P” value with glucosamine-6-phosphate [3] was found to be 0.00124 ± 0.00017 s⁻¹.
On to G41A G63U, for which, in the data set with glucosamine-6-phosphate [1], the “self-cleavage kobs at 40 uM GlcN6P” value was less than 1e-05 s⁻¹. Moreover, the “self-cleavage kobs at 160 uM GlcN6P” value in the data set with glucosamine-6-phosphate [6] is less than 1e-05 s⁻¹. The “self-cleavage kobs at 640 uM GlcN6P” value in the data set with glucosamine-6-phosphate [7] was less than 1e-05 s⁻¹. Also, the “self-cleavage kobs at 2500 uM GlcN6P” value with glucosamine-6-phosphate [2] is less than 1e-05 s⁻¹. In the data set with glucosamine-6-phosphate [3], the “self-cleavage kobs at 10000 uM GlcN6P” value was less than 1e-05 s⁻¹.
On to U54A C61A, for which the KM in the data set with glucosamine-6-phosphate [5] stood at 864 ± 400 µM.
For A42G C50A A64G C70G, the “self-cleavage kobs at 40 uM GlcN6P” value with glucosamine-6-phosphate [1] is less than 1e-05 s⁻¹.
On to A12U G66A, for which the KM with glucosamine-6-phosphate [5] was 278 ± 130 µM. Further, in the data set with glucosamine-6-phosphate [1], the “self-cleavage kobs at 40 uM GlcN6P” value was found to be 0.0012 ± 0.00016 s⁻¹. For the same variant, in the data set with glucosamine-6-phosphate [6], the “self-cleavage kobs at 160 uM GlcN6P” value was determined as 0.00266 ± 0.0007 s⁻¹. For the same variant, the “self-cleavage kobs at 640 uM GlcN6P” value with glucosamine-6-phosphate [7] is 0.00776 ± 0.002 s⁻¹. Also, the “self-cleavage kobs at 2500 uM GlcN6P” value with glucosamine-6-phosphate [2] was found to be 0.00745 ± 0.0017 s⁻¹. Further, the “self-cleavage kobs at 10000 uM GlcN6P” value in the data set with glucosamine-6-phosphate [3] came to 0.0359 ± 0.012 s⁻¹.
On to C10G G29A, for which the “self-cleavage kobs at 40 uM GlcN6P” value with glucosamine-6-phosphate [1] is less than 1e-05 s⁻¹. Besides, the “self-cleavage kobs at 640 uM GlcN6P” value in the data set with glucosamine-6-phosphate [7] is less than 1e-05 s⁻¹. The “self-cleavage kobs at 10000 uM GlcN6P” value with glucosamine-6-phosphate [3] is less than 1e-05 s⁻¹.
For G41U U55G, in the data set with glucosamine-6-phosphate [4], the kcat turned out to be 0.000303 ± 5.3e-05 s⁻¹. Also, the “self-cleavage kobs at 40 uM GlcN6P” value in the data set with glucosamine-6-phosphate [1] worked out at 3.39e-05 ± 1.1e-05 s⁻¹. For the same variant, the “self-cleavage kobs at 160 uM GlcN6P” value with glucosamine-6-phosphate [6] is 9.74e-05 ± 2.6e-05 s⁻¹. Further, in the data set with glucosamine-6-phosphate [7], the “self-cleavage kobs at 640 uM GlcN6P” value stood at 0.000276 ± 3.9e-05 s⁻¹. In addition, the “self-cleavage kobs at 2500 uM GlcN6P” value with glucosamine-6-phosphate [2] stood at 0.000419 ± 7.2e-05 s⁻¹. Besides, the “self-cleavage kobs at 10000 uM GlcN6P” value with glucosamine-6-phosphate [3] was 0.000252 ± 3.2e-05 s⁻¹.
For the variant C58U C71A, the kcat in the data set with glucosamine-6-phosphate [4] was 7.75e-05 ± 1.6e-05 s⁻¹. In the data set with glucosamine-6-phosphate [3], the “self-cleavage kobs at 10000 uM GlcN6P” value was determined as 2.61e-05 ± 1.2e-05 s⁻¹.
In the case of C10G G63A, the “self-cleavage kobs at 40 uM GlcN6P” value with glucosamine-6-phosphate [1] was less than 1e-05 s⁻¹. Further, the “self-cleavage kobs at 10000 uM GlcN6P” value in the data set with glucosamine-6-phosphate [3] is less than 1e-05 s⁻¹.
Regarding C8A G44U, the “self-cleavage kobs at 40 uM GlcN6P” value in the data set with glucosamine-6-phosphate [1] was less than 1e-05 s⁻¹. For the same variant, the “self-cleavage kobs at 160 uM GlcN6P” value in the data set with glucosamine-6-phosphate [6] is less than 1e-05 s⁻¹. Besides, the “self-cleavage kobs at 640 uM GlcN6P” value in the data set with glucosamine-6-phosphate [7] was less than 1e-05 s⁻¹. Besides, in the data set with glucosamine-6-phosphate [3], the “self-cleavage kobs at 10000 uM GlcN6P” value was less than 1e-05 s⁻¹.
On to U54C C70A, for which the “self-cleavage kobs at 40 uM GlcN6P” value with glucosamine-6-phosphate [1] came out at 3e-05 ± 1.2e-05 s⁻¹. In the data set with glucosamine-6-phosphate [6], the “self-cleavage kobs at 160 uM GlcN6P” value was determined as 5.86e-05 ± 2.8e-05 s⁻¹. Further, the “self-cleavage kobs at 640 uM GlcN6P” value with glucosamine-6-phosphate [7] was 0.000124 ± 2.4e-05 s⁻¹. For the same variant, the “self-cleavage kobs at 2500 uM GlcN6P” value with glucosamine-6-phosphate [2] was 0.000512 ± 0.00011 s⁻¹. In addition, in the data set with glucosamine-6-phosphate [3], the “self-cleavage kobs at 10000 uM GlcN6P” value worked out at 0.000206 ± 2.9e-05 s⁻¹.
With C16A A39U, the kcat in the data set with glucosamine-6-phosphate [4] was 0.00123 ± 0.00017 s⁻¹. In addition, the KM with glucosamine-6-phosphate [5] stood at 2410 ± 520 µM. Moreover, the “self-cleavage kobs at 160 uM GlcN6P” value with glucosamine-6-phosphate [6] came to 6.24e-05 ± 9.4e-06 s⁻¹. The “self-cleavage kobs at 640 uM GlcN6P” value in the data set with glucosamine-6-phosphate [7] was found to be 0.000287 ± 2.3e-05 s⁻¹. The “self-cleavage kobs at 2500 uM GlcN6P” value with glucosamine-6-phosphate [2] worked out at 0.000654 ± 5.7e-05 s⁻¹. Besides, in the data set with glucosamine-6-phosphate [3], the “self-cleavage kobs at 10000 uM GlcN6P” value turned out to be 0.000937 ± 9e-05 s⁻¹.
In the case of A39C U47C, the kcat with glucosamine-6-phosphate [4] amounted to 0.00157 ± 0.00025 s⁻¹. For the same variant, the KM with glucosamine-6-phosphate [5] was found to be 2020 ± 510 µM. The “self-cleavage kobs at 40 uM GlcN6P” value with glucosamine-6-phosphate [1] stood at 4.25e-05 ± 5.6e-06 s⁻¹. The “self-cleavage kobs at 160 uM GlcN6P” value with glucosamine-6-phosphate [6] was 0.000105 ± 1.6e-05 s⁻¹. In the data set with glucosamine-6-phosphate [7], the “self-cleavage kobs at 640 uM GlcN6P” value was determined as 0.000327 ± 3.9e-05 s⁻¹. For the same variant, in the data set with glucosamine-6-phosphate [2], the “self-cleavage kobs at 2500 uM GlcN6P” value was determined as 0.000934 ± 0.00011 s⁻¹. The “self-cleavage kobs at 10000 uM GlcN6P” value with glucosamine-6-phosphate [3] amounted to 0.00131 ± 0.00011 s⁻¹.
With A33G C34U, the “self-cleavage kobs at 40 uM GlcN6P” value with glucosamine-6-phosphate [1] is less than 1e-05 s⁻¹. Moreover, the “self-cleavage kobs at 2500 uM GlcN6P” value in the data set with glucosamine-6-phosphate [2] was less than 1e-05 s⁻¹.
For U30C G59A C68U, the “self-cleavage kobs at 40 uM GlcN6P” value in the data set with glucosamine-6-phosphate [1] was less than 1e-05 s⁻¹. The “self-cleavage kobs at 10000 uM GlcN6P” value with glucosamine-6-phosphate [3] is less than 1e-05 s⁻¹.

Usually kcat stands for the number of substrate molecules converted per active site and unit of time at saturation. The KM is the substrate concentration at which the rate is half of its maximum.
